Results on 1 substance are retold here after patent US20110212843.

By Kd is commonly meant the free concentration of one partner at which half of the binding sites on the other are occupied at equilibrium, for simple one-to-one binding. A low value points to tighter binding.

For series [1], the target named is NF-kB p50 homodimer (UniProt P19838). To be noted: also captured on SELDI array; lost on more stringent wash.
Series [2] addresses NF-kB p65 (Rel A) homodimer (UniProt Q04206). The note with it: 1:1 stoichiometry.

Chain of NF-kB p65 (Rel A) homodimer (Q04206 whole entry): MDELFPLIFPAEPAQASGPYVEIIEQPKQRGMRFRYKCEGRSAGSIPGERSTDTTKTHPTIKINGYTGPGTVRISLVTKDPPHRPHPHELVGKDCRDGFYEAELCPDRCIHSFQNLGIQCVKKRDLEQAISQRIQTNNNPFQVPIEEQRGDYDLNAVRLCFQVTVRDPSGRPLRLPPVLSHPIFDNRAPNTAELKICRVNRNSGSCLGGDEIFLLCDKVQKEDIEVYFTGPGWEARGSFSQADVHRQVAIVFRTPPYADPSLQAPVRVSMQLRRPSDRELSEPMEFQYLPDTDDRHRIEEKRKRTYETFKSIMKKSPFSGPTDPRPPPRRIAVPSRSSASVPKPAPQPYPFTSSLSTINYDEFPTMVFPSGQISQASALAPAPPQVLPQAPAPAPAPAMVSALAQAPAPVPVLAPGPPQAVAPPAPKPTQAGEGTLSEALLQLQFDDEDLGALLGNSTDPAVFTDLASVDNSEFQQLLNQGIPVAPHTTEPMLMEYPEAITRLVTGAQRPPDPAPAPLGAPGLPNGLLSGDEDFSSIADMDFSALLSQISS
Chain of NF-kB p50 homodimer (P19838 1-433): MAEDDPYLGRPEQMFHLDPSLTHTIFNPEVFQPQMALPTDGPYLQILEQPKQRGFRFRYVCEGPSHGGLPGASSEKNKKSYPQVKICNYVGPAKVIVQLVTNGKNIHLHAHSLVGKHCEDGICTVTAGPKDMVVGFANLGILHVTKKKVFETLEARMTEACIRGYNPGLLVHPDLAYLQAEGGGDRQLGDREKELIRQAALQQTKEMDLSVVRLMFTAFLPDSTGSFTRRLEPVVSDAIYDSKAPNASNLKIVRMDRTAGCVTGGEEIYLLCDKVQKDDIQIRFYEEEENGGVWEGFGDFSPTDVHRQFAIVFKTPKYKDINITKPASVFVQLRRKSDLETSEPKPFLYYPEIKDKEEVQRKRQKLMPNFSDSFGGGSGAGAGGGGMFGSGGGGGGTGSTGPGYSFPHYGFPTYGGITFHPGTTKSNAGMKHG

“IgkB 22-mer duplex (NF-kB promoter element)”: the Kd in series [1] and in series [2] was 4 nM throughout.
